Experiment: yeast display, Sf9 membrane polyspecificity reagent, FACS + sequencing; frameworks hold sequencing errors
Method in brief: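 Synthetic nanobody libraries on Saccharomyces cerevisiae BJ5465 were galactose-induced for 36–48 hours, stained 1 hour at 4 °C with 10% biotinylated, detergent-solubilized Sf9 membrane reagent and enriched on streptavidin microbeads. FACS then separated cells into low and high (top ~1%) gates by anti-HA (expression) and streptavidin (reagent binding) fluorescence. Genes were colony-PCR amplified, MiSeq 2 × 250 sequenced and CDR-length filtered. A clone's polyreactivity label is that of its gate of origin.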
In the case of “QVQLVESGGGLVQAGGSLRLSCAASGSNFTNAMGWYRQAPGKERELVASIDANAGDTHYADSVKGRFTISRDNAKNTVYLQLNSLKPEDTAVYYCNADVTERLWTGEDDYWGQGTQVTVSS”, the “polyreactivity (PSR sort gate)” value is reported as “low polyreactivity”.
In the case of “QVQLVESGGGLVQAGGSLRLSCAASGSNFTWYAMGWYRQAPGKERELVADIDWSGGSTYYADSVKGRFTISRDNAKNTVYLQMNSLKPEDTAVYYCNAVFLFYEYWGQGTQVTVSS”, the “polyreactivity (PSR sort gate)” value is reported as “low polyreactivity”.
In the case of “QVQLVESGGGLVQAGGSLRLSCAASGSNFTYNRMGWYRQAPGKEREFVDAITWTGGSTYAYSVKGRFTISRDNAKNTVYLQINSLKPEDTAVYYCAAVRRISWYTPVITRRYYYWGQGTQVTVSS”, the “polyreactivity (PSR sort gate)” value is reported as “high polyreactivity”.
With “QVQLVESGGGLVQAGGSLRLSCAASGSNFVYNAMGWYRQAPGKERELVAVINKSGDTTYYADSVKGRFTISRDNAKNTVYLQMNSLKPEDTAVYYCNASGEVLAAVVTYDYWGQGTQVTVSS” the “polyreactivity (PSR sort gate)” value was “low polyreactivity”.
In the case of “QVQLVESGGGLVQAGGSLRLSCAASGSNFWRKAMGWYRQAPGKERELVAAITCGGSTYYADSVKGRCTISRDNAKNTVYLQMNSLKTEVTAVYYCAAGYSYRYGYWGQGTQVTVSS”, the “polyreactivity (PSR sort gate)” value is reported as “low polyreactivity”.
With “QVQLVESGGGLVQAGGSLRLSCAASGSNFYDNAMGWYRQAPGKERELLAAITTSGDSTYYADSVKGPFTISRDNAKNTVYLQMNSLKPEDTAVYYCAARPRVRSSYRYYYWGQGTQVTVSS” the “polyreactivity (PSR sort gate)” value was “high polyreactivity”.
For “QVQLVESGGGLVQAGGSLRLSCAASGSNFYSYAMGWYRQAPGKERELVAAITGDGGSTYYADSVKGRFTISRDNAKNTVYLQRNSLKPEDTAVYYCAVPHTYRRYDYWGQGTQVTVSS”, the “polyreactivity (PSR sort gate)” value was “low polyreactivity”.
In the case of “QVQLVESGGGLVQAGGSLRLSCAASGSNIKYYAMGWYRQAPGKERELVARITSDGGSTFYADSVKGRFTISRDNAKNTVYLQMNSLKPEDTAVYYCNTAYAFRHCWFYPMDYWGQGTQVTVSS”, the “polyreactivity (PSR sort gate)” value is reported as “high polyreactivity”.
For “QVQLVESGGGLVQAGGSLRLSCAASGSNILQNAMGWYRQAPGKERELVAAITNGGSTNYADSVKGRFTISRDNAKNTVYLQMNSLKPDDTAVYYCAAYPLYTGSYDRGGYWGQGTQVTVSS”, the “polyreactivity (PSR sort gate)” value was “low polyreactivity”.
With “QVQLVESGGGLVQAGGSLRLSCAASGSNISQNAMGWYRQAPGKERELVASITYSGGSTYYADSVKGRFTISRDNAKNTVYLQMNSLKPEVTAVYYCAADVRYSSRFYYWGQGTQVTVSS” the “polyreactivity (PSR sort gate)” value was “high polyreactivity”.
With “QVQLVESGGGLVQAGGSLRLSCAASGSNIYTYAMGWYRHAPGKERELVAAISSGGSTTYADSVKGRFTISRDNAKNTVYLEMISLKPEDTAVYYCAADGASRALYDYWGQGTQVTVSS” the “polyreactivity (PSR sort gate)” value was “high polyreactivity”.
In the case of “QVQLVESGGGLVQAGGSLRLSCAASGSNLATYTMGWYRQEPGKERELVAAISFGGSTYYADSVKGRFTISRDNAKNTDYLQMNSLKPEDTAVYYCAVYGDSYWGAYYYSDGYWGQGTQVTVSS”, the “polyreactivity (PSR sort gate)” value is reported as “low polyreactivity”.
With “QVQLVESGGGLVQAGGSLRLSCAASGSNLGLYAMGWYRQAPGKERELVAAISSGGSTYYADSVKGRFTISRDNAKNTVYLQMNSLKPEDTAVYYCAADLSLSRVVFGDYDYWGQGTQVTVSS” the “polyreactivity (PSR sort gate)” value was “low polyreactivity”.
For “QVQLVESGGGLVQAGGSLRLSCAASGSNSRYAMGWYRHARGKERELVRAITRSGGSTHYADSVKGRFTISRDNAMNTVYLQMNSLKPEDTAVYYCATRYYRGVIRYPYDSWGQGTQVTLSS”, the “polyreactivity (PSR sort gate)” value was “high polyreactivity”.
In the case of “QVQLVESGGGLVQAGGSLRLSCAASGSNVYYAMGWYRQAPVKERELVAAINTSGGSTYYADSVKGRFTISRDNAKNTVYLQMNSLKPEDTAVYYCAAVYVGYITGFKRGYWGQGTQVTVSS”, the “polyreactivity (PSR sort gate)” value is reported as “high polyreactivity”.
In the case of “QVQLVESGGGLVQAGGSLRLSCAASGSNWSYAMGWYSQAPGKESVLVATISRRGGSTYYADSVKGRFTISRDNAKNTVYLQMNSLKPEDTAVYYCAAAESASSFRFDYWGQGTQETVSS”, the “polyreactivity (PSR sort gate)” value is reported as “high polyreactivity”.
For “QVQLVESGGGLVQAGGSLRLSCAASGSNYYWYAMVWSRQAPGKEMELVADITTSDGRTYYADSVKGRFTISRDNAKNTVYFLMNSLKPEDTAVYYCAADPFSGYGFQYYRGLYYWGQGTQVSVSS”, the “polyreactivity (PSR sort gate)” value was “low polyreactivity”.
With “QVQLVESGGGLVQAGGSLRLSCAASGSPFRPYVMGWSRQAPGKERELVAAISWRGGTTYYADSVKGRFTISRDNAKNTDYLQIHSLKPEDTAVYYCAARGDQGVPVARRYDYWGQGTQVTVSS” the “polyreactivity (PSR sort gate)” value was “high polyreactivity”.
In the case of “QVQLVESGGGLVQAGGSLRLSCAASGSPFRSYAMGWYRQAPGKERELVAAISISGGRTYYADSVKGRFTISRDNAKNTVYLQMNSLKPEDTAVYYCAADRRTDGHDYWGQGTQVTVSS”, the “polyreactivity (PSR sort gate)” value is reported as “high polyreactivity”.
In the case of “QVQLVESGGGLVQAGGSLRLSCAASGSSFNYNTMGWYRQAPGKERELVADISWSGGSTYYADSVKGRFTISRDNAKNTVYLQMNSLKPEDTAVYYCAADFGLFPYVGTGYYYWGQGTQVTVSS”, the “polyreactivity (PSR sort gate)” value is reported as “low polyreactivity”.
With “QVQLVESGGGLVQAGGSLRLSCAASGSSFTNYGMGWYRQAPGKERELVAAISESGDTTYYADSVKGRFTISRDNAKNTVYLQMNSLKPEDTAVYYCNRAHGRSRYSRDYDSWGQGTQVTVSS” the “polyreactivity (PSR sort gate)” value was “low polyreactivity”.
In the case of “QVQLVESGGGLVQAGGSLRLSCAASGSSFYTNAMGWYTQAPGKERELVAAISSSGDSTYYADSVKGRFTISRDNANNTVYLQMNSLKPEDTGVYYCNADRRSYNGFRYYYWGQGTQVTVSS”, the “polyreactivity (PSR sort gate)” value is reported as “low polyreactivity”.
In the case of “QVQLVESGGGLVQAGGSLRLSCAASGSSFYVNAMGWYRQAPGKEREFVAAITWNSGSTYYADSVKGRFTISRDNEKNTVYLQMNSLKPEDTAVYYCAAVLSGRVYGYDYWGQGTQVTVSS”, the “polyreactivity (PSR sort gate)” value is reported as “low polyreactivity”.
With “QVQLVESGGGLVQAGGSLRLSCAASGSSLGLNAMGWYRQAPGKERELVAGISWRGGSTYYADSVKGRFTISRDNAKNTVYLQMNSLKPEDTAVYYCNAVRFYGRWRGYDYWGQGTQVTVSS” the “polyreactivity (PSR sort gate)” value was “high polyreactivity”.
In the case of “QVQLVESGGGLVQAGGSLRLSCAASGSSRIYDMGWYRQAPGKERVWVAAISSTGSTYYADSEKGRYTISRDNAKNTGYLQMNSLKPEETADYYCAAARYYRYDSYSSWGQGTQVTVSS”, the “polyreactivity (PSR sort gate)” value is reported as “high polyreactivity”.
In the case of “QVQLVESGGGLVQAGGSLRLSCAASGSTCDRYAMGWYRQAPGKERELVAAITDTGGSTYYADSVKGRFTISRDNAKNTVYLQMNSLKPEDTAVFYCAKGYFWSSYVSSRYGSWGQGTQVTVSS”, the “polyreactivity (PSR sort gate)” value is reported as “high polyreactivity”.
For “QVQLVESGGGLVQAGGSLRLSCAASGSTCRPYVMGWFRQAPGKERELVAAISWRGGTTYYADSVKGRFTISRDNAKNTVSLQMNSLKPEDTAVYYCAARGDQGVPVARRYDYWGQGSQVTVSS”, the “polyreactivity (PSR sort gate)” value was “high polyreactivity”.
In the case of “QVQLVESGGGLVQAGGSLRLSCAASGSTCYKYAMGWYRKAPGKERELVAVITKSGGSTYYADSVKGRFTISRDNAKNPVYLQMNSLTPEDTAVYYCGTVQSGRVRTYDYCGQGTQVTVSS”, the “polyreactivity (PSR sort gate)” value is reported as “high polyreactivity”.
With “QVQLVESGGGLVQAGGSLRLSCAASGSTFAANAMGWYRQAPGKERELVAAITGSGGGTYYADSVKGRFTISRDNAKNTVYLQMNSLKPEDTAVYYCNTYYYWQYDWGQGTQVTVSS” the “polyreactivity (PSR sort gate)” value was “high polyreactivity”.
With “QVQLVESGGGLVQAGGSLRLSCAASGSTFAANAMGWYRQAPGKERELVAGISESGDRTYADSVKGRFTISRDNPKNTVYLQMNSLKPEDTAVYYCNVGANVYLLYFPSRGGVYDYGYWGQGTQVTVSS” the “polyreactivity (PSR sort gate)” value was “low polyreactivity”.
With “QVQLVESGGGLVQAGGSLRLSCAASGSTFAANPMGWYRQAPGKERELVAAITSSGGSTYYADSVKGRFTISRDNAKNTVYLQMNSLKPEDTEVYYCNKDIERYVRIYDSWGQGTQVTVSS” the “polyreactivity (PSR sort gate)” value was “low polyreactivity”.
For “QVQLVESGGGLVQAGGSLRLSCAASGSTFAASVMGWYRQAPVKERELVAAISTSGGGTYYADSVKGRFTISRDNAKNTVYLQMNSLIPEDTAVYYCAADYGSGSVSYDYWGQGTQVTVSS”, the “polyreactivity (PSR sort gate)” value was “low polyreactivity”.
For “QVQLVESGGGLVQAGGSLRLSCAASGSTFAAYVMGWYRQAPGKERELVAAISTSGGRTYYADSVKGRFTISRDNAMNTVYLQMNSLIPEDTAVYYCAKKRINSRKYDYWGQGTQVNVSS”, the “polyreactivity (PSR sort gate)” value was “low polyreactivity”.
With “QVQLVESGGGLVQAGGSLRLSCAASGSTFAEYAMGWYRQAPGKERELVAAIRWSGGSTSYADSVKGRFTISRDNAKNTVYLQMNSLKPEDTAVYYCAAERFWYDGEVKLYVLSYYWGQGTQVTVSS” the “polyreactivity (PSR sort gate)” value was “low polyreactivity”.
In the case of “QVQLVESGGGLVQAGGSLRLSCAASGSTFAFYAMGWYRQAPGKEREFVAAITWDGGTTYYADSVKGRFTISLDNAKNTVYLQMNSLKPEDTAVYYCATQYLSYLYAGRYDYWGQGTQVTVSS”, the “polyreactivity (PSR sort gate)” value is reported as “low polyreactivity”.
In the case of “QVQLVESGGGLVQAGGSLRLSCAASGSTFAFYAMGWYRQAPGTERELVAAIRSGGSTNYADSVKGRFTISRDNAKNTVYLQMNSLKPEDTAVYYCAARESDPGSHSVYREDDYWGQGTQVTVSS”, the “polyreactivity (PSR sort gate)” value is reported as “low polyreactivity”.
For “QVQLVESGGGLVQAGGSLRLSCAASGSTFAGNAMGWYIQAPGKERELVAAISSSGAGTYYADSVKGRFTISRDNAKNTVYLLINSLKPADTAVYYCNVGSRALRRRVRSVSFDYWGQGTQVSVSS”, the “polyreactivity (PSR sort gate)” value was “low polyreactivity”.
For “QVQLVESGGGLVQAGGSLRLSCAASGSTFAGNAMGWYRQAPGKERELVAAITWSGGNTNYADSVKGRFTISRDNAKNTVYLQMNSLKPEDTAVYYCASDFSGSLAYDYWGQGTQVTVSS”, the “polyreactivity (PSR sort gate)” value was “low polyreactivity”.
For “QVQLVESGGGLVQAGGSLRLSCAASGSTFAGNEMGWYRQAPGKERELVAAITFSGGRTDYADSVKGRFTISRDNAKNTVYFQINCLKPEDTAVYDCAAPADDTVHYQNYYWGQGTQVSVSS”, the “polyreactivity (PSR sort gate)” value was “low polyreactivity”.
For “QVQLVESGGGLVQAGGSLRLSCAASGSTFAGNGMGWYRQAPGKEGELVAGIDVTGGSTYYADSVKGRFTISRDNAKKTVDLQMNSLKPEDTAVYYCYARYVYHSSFAGFDYWGQGTQVTVSS”, the “polyreactivity (PSR sort gate)” value was “low polyreactivity”.
In the case of “QVQLVESGGGLVQAGGSLRLSCAASGSTFAGYAMGWYIQAPGKERELVASIRSGGSTNYADSVKGRFSISRDNAKNTVYLQMNSLKPEDTAVYYCAARPDQKRYDYWGQGTQVTVSS”, the “polyreactivity (PSR sort gate)” value is reported as “low polyreactivity”.

From the nanobody polyreactivity screen of Harvey et al. (2022)
